The target of test [1] is T1, recombinant human CTLA4-Fc (Sino Biological, 11159-H03H) (human, UniProt P16410 36-162).
T1 construct: bought; also called human CTLA4 fused with human FC fragment
T1 sequence (looked up): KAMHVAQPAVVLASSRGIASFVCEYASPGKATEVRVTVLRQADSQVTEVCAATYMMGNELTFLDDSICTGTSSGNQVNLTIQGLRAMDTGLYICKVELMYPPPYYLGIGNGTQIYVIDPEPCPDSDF
Put plainly: ELISA, Fab captured. In general terms: An ELISA detects its analyte on a solid surface through an enzyme-linked reagent.

Test [2] concerns the target mouse CTLA4 fused with human FC fragment (mouse, UniProt P09793 36-162, limits assumed). Put plainly: ELISA, Fab captured.
The target in test [3] is T1, recombinant human CTLA4-Fc (Sino …). The test can be described thus: ELISA, CTLA4-Fc coated, batch 1. As to the method: (§1) Plates were blocked with PBS supplemented with 3% non-fat milk at 37° C. for 1 hour. After washing, 100 μL, of 3-fold serial dilutions of antibodies were added to each well. After incubation at 37° C. for 1 hour, plates were washed four times, and 100 μL HRP conjugated anti-human IgG (Fab specific) (1:6000 dilution) was added to each well. Plates were incubated at 37° C. for 1 hour, washed four times, and then 50 μL TMB substrate solution was added to each well, and the plate was incubated at room temperature. […] The EC50 was evaluated by fitting the ELISA data using the asymmetrical sigmoidal (five-parameter logistic equation) model of GraphPad Prism 6 software.

Test [4] has the same target. The test can be described thus: ELISA, CTLA4-Fc coated, batch 2. As for the experimental part:
as §1

Test [5] has the same target. The test can be described thus: ELISA; EC50 over EC50 of TY21580. As to the method:
as §1

The target is the same in test [6]. The test can be described thus: ELISA; EC50 over EC50 of TY21580. As for the experimental part:
as §1
This is another data set of the same source.

For test [7] the target is unchanged. The test can be described thus: ELISA; EC50 over EC50 of TY21580. As for the experimental part: as §1
The source holds these as a separate data set.

Test [8] shares this target. The test can be described thus: ELISA; EC50 over EC50 of TY21580. As for the experimental part: Plates were incubated at 37° C. for 1 hour, washed four times, and then 50 μL TMB substrate solution was added to each well, and the plate was incubated at room temperature. […] The EC50 was evaluated by fitting the ELISA data using the asymmetrical sigmoidal (five-parameter logistic equation) model of GraphPad Prism 6 software.
The purified activatable antibodies were treated with the proteases which recognize the cleavage sequences, and were then tested to determine whether removal of the masking peptide restored their activity. […] The masking efficiency was then measured by ELISA as described above.
The source holds these as a separate data set.

Where two headings read alike, the source gives them in different places.

B1: B15736 (Fab, V domains shown)
VH: EVQLVESGGGLVQPGGSLRLSCAASGFTFSDYAIHWVRQAPGKGLEWIGIISPSGGSTKYAQKFQGRVTISRDNSKNTLYLQLNSLRAEDTAVYYCARLGYGYFDVWGQGTLVTVSS
VL: DIQLTQSPSSLSASVGDRVTITCRASQSVDFYGISFLHWYQQKPGKAPKLLIYDASSLESGVPSRFSGSGSGTDFTLTISSLQPEDFATYYCVQALQLPLTFGQGTKVEIKR
In the case of B1, the binding result in test [1] and in test [2] was “binds” throughout.

B2: B15700 (Fab, V domains shown)
VH: EVQLVESGGGLVQPGGSLRLSCAASGFTFSGYAIHWVRQAPGKGLEWIGIISPSGGGTKYAQKFQGRVTISRDNSKNTLYLQLNSLRAEDTAVYYCARHPFAYWGQGTLVTVSS
VL: DIQLTQSPSSLSASVGDRVTITCRASQSVDFYGISFLDWYQQKPGKAPKLLIYDASNRATGIPSRFSGSGSGTDFTLTISSLQPEDFATYYCQQYVSSPPEYTFGQGTKVEIKR
Take B2: the binding result in test [1] and in test [2] was “binds” throughout.

B3: B15709 (Fab, V domains shown)
VH: EVQLVESGGGLVQPGGSLRLSCAASGFTFSDYAIHWVRQAPGKGLEWIGIISPSSGSTNYAQKFQGRVTISRDNSKNTLYLQLNSLRAEDTAVYYCARDIHSGSSGYYYGFDVWGQGTLVTVSS
VL: DIQLTQSPSSLSASVGDRVTITCRASESVDFFGISFLAWYQQKPGKAPKLLIYDASNRATGIPSRFSGSGSGTDFTLTISSLQPEDFATYYCQHYTSSPPVYTFGQGTKVEIKR
For B3, the binding result in test [1] and in test [2] was “binds” in each case.

B4: TY22401 (antibody, V domains shown)
VH: EVQLVESGGGLVQPGGSLRLSCAASGYSISSGYHWSWIRQAPGKGLEWLARIDWDDDKYYSTSLKSRLTISRDNSKNTLYLQLNSLRAEDTAVYYCARSYVYFDYWGQGTLVTVSS
VL: EVGSYNFVADSCPDHPYPCSASGRSAGGGGSPLGLAGSGGSDIQLTQSPSSLSASVGDRVTITCRASQSVRGRFLAWYQQKPGKAPKLLIYDASNRATGIPSRFSGSGSGTDFTLTISSLQPEDFATYYCQQSSSWPPTFGQGTKVEIKR
notes: peptide fused to the N-terminus of the light chain; also called B13189 (peptide name)
Consider B4, for which the LogEC50 was -7.62 in test [3] and -7.8 in test [4].

B5: TY22566 (antibody, IgG1, V domains shown)
VH: EVQLVESGGGLVQPGGSLRLSCAASGYSISSGYHWSWIRQAPGKGLEWLARIDWDDDKYYSTSLKSRLTISRDNSKNTLYLQLNSLRAEDTAVYYCARSYVYFDYWGQGTLVTVSS
VL: EVGSYPNPASDCVPYYYACAYSGRSAGGGGSPLGLAGSGGSDIQLTQSPSSLSASVGDRVTITCRASQSVRGRFLAWYQQKPGKAPKLLIYDASNRATGIPSRFSGSGSGTDFTLTISSLQPEDFATYYCQQSSSWPPTFGQGTKVEIKR
With B5, the LogEC50 in test [4] is -6.79. In addition, the Masking efficiency in test [5] stood at 489 fold.

B6: TY22565 (antibody, IgG1, V domains shown)
VH: EVQLVESGGGLVQPGGSLRLSCAASGYSISSGYHWSWIRQAPGKGLEWLARIDWDDDKYYSTSLKSRLTISRDNSKNTLYLQLNSLRAEDTAVYYCARSYVYFDYWGQGTLVTVSS
VL: EVGSYPQPSSDCVPYYYACAYSGRSAGGGGSPLGLAGSGGSDIQLTQSPSSLSASVGDRVTITCRASQSVRGRFLAWYQQKPGKAPKLLIYDASNRATGIPSRFSGSGSGTDFTLTISSLQPEDFATYYCQQSSSWPPTFGQGTKVEIKR
Take B6: the LogEC50 in test [4] is -6.68.

B7: TY22775 (antibody, V domains shown)
VH: EVQLVESGGGLVQPGGSLRLSCAASGYSISSGYHWSWIRQAPGKGLEWLARIDWDDDKYYSTSLKSRLTISRDNSKNTLYLQLNSLRAEDTAVYYCARSYVYFDYWGQGTLVTVSS
VL: EVGHSDCDAFYPYCDSSGRSAGGGGTPLGLAGSGGSDIQLTQSPSSLSASVGDRVTITCRASQSVRGRFLAWYQQKPGKAPKLLIYDASNRATGIPSRFSGSGSGTDFTLTISSLQPEDFATYYCQQSSSWPPTFGQGTKVEIKR
Take B7: the Masking efficiency in test [5] worked out at 168 fold.

B8: TY22402 (antibody, IgG1, V domains shown)
VH: EVQLVESGGGLVQPGGSLRLSCAASGYSISSGYHWSWIRQAPGKGLEWLARIDWDDDKYYSTSLKSRLTISRDNSKNTLYLQLNSLRAEDTAVYYCARSYVYFDYWGQGTLVTVSS
VL: EVGSYIVHHSDCDAFYPYCDSSGRSAGGGGSPLGLAGSGGSDIQLTQSPSSLSASVGDRVTITCRASQSVRGRFLAWYQQKPGKAPKLLIYDASNRATGIPSRFSGSGSGTDFTLTISSLQPEDFATYYCQQSSSWPPTFGQGTKVEIKR
notes: also called B13180 (peptide name)
Consider B8, for which the LogEC50 is -6.32 in test [3] and -6.9 in test [4]. Further, the Masking efficiency in test [5] turned out to be 243 fold; in test [6], 554 fold.

B9: TY22776 (antibody, V domains shown)
VH: EVQLVESGGGLVQPGGSLRLSCAASGYSISSGYHWSWIRQAPGKGLEWLARIDWDDDKYYSTSLKSRLTISRDNSKNTLYLQLNSLRAEDTAVYYCARSYVYFDYWGQGTLVTVSS
VL: EVGSSDCVPYYYACAYSGRSAGGGGTPLGLAGSGGSDIQLTQSPSSLSASVGDRVTITCRASQSVRGRFLAWYQQKPGKAPKLLIYDASNRATGIPSRFSGSGSGTDFTLTISSLQPEDFATYYCQQSSSWPPTFGQGTKVEIKR
With B9, the Masking efficiency in test [5] came out at 296 fold.

B10: TY22563 (antibody, IgG1, V domains shown)
VH: EVQLVESGGGLVQPGGSLRLSCAASGYSISSGYHWSWIRQAPGKGLEWLARIDWDDDKYYSTSLKSRLTISRDNSKNTLYLQLNSLRAEDTAVYYCARSYVYFDYWGQGTLVTVSS
VL: EVGSYYSAYPACDSHYPYCQSSGRSAGGGGSPLGLAGSGGSDIQLTQSPSSLSASVGDRVTITCRASQSVRGRFLAWYQQKPGKAPKLLIYDASNRATGIPSRFSGSGSGTDFTLTISSLQPEDFATYYCQQSSSWPPTFGQGTKVEIKR
As for B10, in test [4], the LogEC50 was -7.32. Moreover, the Masking efficiency in test [5] amounted to 144 fold.

B11: TY22404 (antibody, IgG1, V domains shown)
VH: EVQLVESGGGLVQPGGSLRLSCAASGYSISSGYHWSWIRQAPGKGLEWLARIDWDDDKYYSTSLKSRLTISRDNSKNTLYLQLNSLRAEDTAVYYCARSYVYFDYWGQGTLVTVSS
VL: EVGSYPNPSSDCVPYYYACAYSGRSAGGGGSPLGLAGSGGSDIQLTQSPSSLSASVGDRVTITCRASQSVRGRFLAWYQQKPGKAPKLLIYDASNRATGIPSRFSGSGSGTDFTLTISSLQPEDFATYYCQQSSSWPPTFGQGTKVEIKR
notes: also called B13197 (peptide name)
B11: the Masking efficiency in test [7] came out at 469 fold; in test [8], 216 fold; in test [5], 308 fold; in test [6] it was 572 fold. Moreover, the LogEC50 in test [3] is -6.75; in test [4] it was -6.89.

B12: TY22564 (antibody, IgG1, V domains shown)
VH: EVQLVESGGGLVQPGGSLRLSCAASGYSISSGYHWSWIRQAPGKGLEWLARIDWDDDKYYSTSLKSRLTISRDNSKNTLYLQLNSLRAEDTAVYYCARSYVYFDYWGQGTLVTVSS
VL: EVGSYYSAYPACDSHYPYCNSAGRSAGGGGSPLGLAGSGGSDIQLTQSPSSLSASVGDRVTITCRASQSVRGRFLAWYQQKPGKAPKLLIYDASNRATGIPSRFSGSGSGTDFTLTISSLQPEDFATYYCQQSSSWPPTFGQGTKVEIKR
Take B12: in test [4], the LogEC50 was -7.41.

The record behind these values is US20240141046A1 (published 2024).
